B1: rIL-1 alpha: recombinant IL-1 alpha (protein, UniProt P01583 113-271, looked up)
Interleukin-1 alpha: SAPFSFLSNVKYNFMRIIKYEFILNDALNQSIIRANDQYLTAAALHNLDEAVKFDMGAYKSSKDDAKITVILRISKTQLYVTAQDEDQPVLLKEMPEIPKTITGSETNLLFFWETHGTKNYFTSVAHPNLFIATKQDYWVCLAGGPPSITDFQILENQA
B2: N175TSA/QTLG (protein, UniProt P05362 28-532, looked up, variant N175Q S177L A178G)
Intercellular adhesion …: QTSVSPSKVILPRGGSVLVTCSTSCDQPKLLGIETPLPKKELLLPGNNRKVYELSNVQEDSQPMCYSNCPDGQSTAKTFLTVYWTPERVELAPLPSWQPVGKNLTLRCQVEGGAPRANLTVVLLRGEKELKREPAVGEPAEVTTTVLVRRDHHGANFSCRTELDLRPQGLELFEQTLGPYQLQTFVLPATPPQLVSPRVLEVDTQGTVVCSLDGLFPVSEAQVHLALGDQRLNPTVTYGNDSFSAKASVSVTAEDEGTQRLTCAVILGNQSQETLQTVTIYSFPAPNVILTKPEVSEGTEVTVKCEAHPRAKVTLNGVPAQPLGPRAQLLLKATPEDNGRSFSCSATLEVAGQLIHKNQTRELRVLYGPRLDERDCPGNWTWPENSQQTPMCQAWGNPLPELKCLKDGTFPLPIGESVTVTRDLEGTYLCRARSTQGEVTRKVTVNVLSPRYEIVIITVVAAAVIMGTAGLSTYLYNRQRKIKKYRLQQAQKGTPMKPNTQATPP
B3: D203TQ/TAD (protein, UniProt P05362 28-532, looked up, variant D203T T204A Q205D)
Intercellular adhesion …: QTSVSPSKVILPRGGSVLVTCSTSCDQPKLLGIETPLPKKELLLPGNNRKVYELSNVQEDSQPMCYSNCPDGQSTAKTFLTVYWTPERVELAPLPSWQPVGKNLTLRCQVEGGAPRANLTVVLLRGEKELKREPAVGEPAEVTTTVLVRRDHHGANFSCRTELDLRPQGLELFENTSAPYQLQTFVLPATPPQLVSPRVLEVTADGTVVCSLDGLFPVSEAQVHLALGDQRLNPTVTYGNDSFSAKASVSVTAEDEGTQRLTCAVILGNQSQETLQTVTIYSFPAPNVILTKPEVSEGTEVTVKCEAHPRAKVTLNGVPAQPLGPRAQLLLKATPEDNGRSFSCSATLEVAGQLIHKNQTRELRVLYGPRLDERDCPGNWTWPENSQQTPMCQAWGNPLPELKCLKDGTFPLPIGESVTVTRDLEGTYLCRARSTQGEVTRKVTVNVLSPRYEIVIITVVAAAVIMGTAGLSTYLYNRQRKIKKYRLQQAQKGTPMKPNTQATPP
B4: N240DS/KNA (protein, UniProt P05362 28-532, looked up, variant N240K D241N S242A)
Intercellular adhesion …: QTSVSPSKVILPRGGSVLVTCSTSCDQPKLLGIETPLPKKELLLPGNNRKVYELSNVQEDSQPMCYSNCPDGQSTAKTFLTVYWTPERVELAPLPSWQPVGKNLTLRCQVEGGAPRANLTVVLLRGEKELKREPAVGEPAEVTTTVLVRRDHHGANFSCRTELDLRPQGLELFENTSAPYQLQTFVLPATPPQLVSPRVLEVDTQGTVVCSLDGLFPVSEAQVHLALGDQRLNPTVTYGKNAFSAKASVSVTAEDEGTQRLTCAVILGNQSQETLQTVTIYSFPAPNVILTKPEVSEGTEVTVKCEAHPRAKVTLNGVPAQPLGPRAQLLLKATPEDNGRSFSCSATLEVAGQLIHKNQTRELRVLYGPRLDERDCPGNWTWPENSQQTPMCQAWGNPLPELKCLKDGTFPLPIGESVTVTRDLEGTYLCRARSTQGEVTRKVTVNVLSPRYEIVIITVVAAAVIMGTAGLSTYLYNRQRKIKKYRLQQAQKGTPMKPNTQATPP
B5: E254DE/KEK (protein, UniProt P05362 28-532, looked up, variant E254K D255E E256K)
Intercellular adhesion …: QTSVSPSKVILPRGGSVLVTCSTSCDQPKLLGIETPLPKKELLLPGNNRKVYELSNVQEDSQPMCYSNCPDGQSTAKTFLTVYWTPERVELAPLPSWQPVGKNLTLRCQVEGGAPRANLTVVLLRGEKELKREPAVGEPAEVTTTVLVRRDHHGANFSCRTELDLRPQGLELFENTSAPYQLQTFVLPATPPQLVSPRVLEVDTQGTVVCSLDGLFPVSEAQVHLALGDQRLNPTVTYGNDSFSAKASVSVTAKEKGTQRLTCAVILGNQSQETLQTVTIYSFPAPNVILTKPEVSEGTEVTVKCEAHPRAKVTLNGVPAQPLGPRAQLLLKATPEDNGRSFSCSATLEVAGQLIHKNQTRELRVLYGPRLDERDCPGNWTWPENSQQTPMCQAWGNPLPELKCLKDGTFPLPIGESVTVTRDLEGTYLCRARSTQGEVTRKVTVNVLSPRYEIVIITVVAAAVIMGTAGLSTYLYNRQRKIKKYRLQQAQKGTPMKPNTQATPP
B6: D213GL/HGV (protein, UniProt P05362 28-532, looked up, variant D213H L215V)
Intercellular adhesion …: QTSVSPSKVILPRGGSVLVTCSTSCDQPKLLGIETPLPKKELLLPGNNRKVYELSNVQEDSQPMCYSNCPDGQSTAKTFLTVYWTPERVELAPLPSWQPVGKNLTLRCQVEGGAPRANLTVVLLRGEKELKREPAVGEPAEVTTTVLVRRDHHGANFSCRTELDLRPQGLELFENTSAPYQLQTFVLPATPPQLVSPRVLEVDTQGTVVCSLHGVFPVSEAQVHLALGDQRLNPTVTYGNDSFSAKASVSVTAEDEGTQRLTCAVILGNQSQETLQTVTIYSFPAPNVILTKPEVSEGTEVTVKCEAHPRAKVTLNGVPAQPLGPRAQLLLKATPEDNGRSFSCSATLEVAGQLIHKNQTRELRVLYGPRLDERDCPGNWTWPENSQQTPMCQAWGNPLPELKCLKDGTFPLPIGESVTVTRDLEGTYLCRARSTQGEVTRKVTVNVLSPRYEIVIITVVAAAVIMGTAGLSTYLYNRQRKIKKYRLQQAQKGTPMKPNTQATPP
B7: D229QR/HLE (protein, UniProt P05362 28-532, looked up, variant D229H Q230L R231E)
Intercellular adhesion …: QTSVSPSKVILPRGGSVLVTCSTSCDQPKLLGIETPLPKKELLLPGNNRKVYELSNVQEDSQPMCYSNCPDGQSTAKTFLTVYWTPERVELAPLPSWQPVGKNLTLRCQVEGGAPRANLTVVLLRGEKELKREPAVGEPAEVTTTVLVRRDHHGANFSCRTELDLRPQGLELFENTSAPYQLQTFVLPATPPQLVSPRVLEVDTQGTVVCSLDGLFPVSEAQVHLALGHLELNPTVTYGNDSFSAKASVSVTAEDEGTQRLTCAVILGNQSQETLQTVTIYSFPAPNVILTKPEVSEGTEVTVKCEAHPRAKVTLNGVPAQPLGPRAQLLLKATPEDNGRSFSCSATLEVAGQLIHKNQTRELRVLYGPRLDERDCPGNWTWPENSQQTPMCQAWGNPLPELKCLKDGTFPLPIGESVTVTRDLEGTYLCRARSTQGEVTRKVTVNVLSPRYEIVIITVVAAAVIMGTAGLSTYLYNRQRKIKKYRLQQAQKGTPMKPNTQATPP

Legend:
[1] = system: ICAM-1 expression on human umbilical vein endothelial cells (HUVEC); assay: Radioimmune assay of ICAM-1 expression with ^125I RR1/1, HUVEC; format: cell-based; conditions: 16 hr
Description: In order to measure ICAM-1 expression, a radioimmune assay was developed. In this assay, purified RR1/1 was iodinated using iodogen to a specific activity of 10 μCi/μg. Endothelial cells were grown in 96 well plates and treated as described for each experiment. The plates were cooled at 4° C. by placing in a cold room for 0.5-1 hr, not immediately on ice. The monolayers were washed 3× with cold complete media and then incubated 30 m at 4° C. with ^125I RR1/1. The monolayers were then washed 3× with complete media. The bound 125, was released using 0.1 N NaOH and counted. The specific activity of the ^125I RR1/1 was adjusted using unlabeled RR1/1 to obtain a linear signal over the range of antigen densities encountered in this study. Non-specific binding was determined in the presence of a thousand fold excess of unlabeled RR1/1 and was subtracted from total binding to yield the specific binding.
Upregulation of ICAM-1 expression on HVEC and HSVEC-HUVEC or HSVEC were seeded into 96 well plates at 1:3 from a confluent monolayer and allowed to grow to confluence. Cells were then treated with the indicated materials or media for 16 hr and the RIA done as in methods. All points were done in quadruplicate.

RR1/1 mAb = assay: Indirect immunofluorescence flow cytofluorometry: mAb RR1/1 binding to COS cells expressing ICAM-1 mutants (SLFI, % CL203); format: cell-based; conditions: SLFI normalized to CL203 SLFI of the mutant
Procedure, shortened: (§1)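 Transfected COS cells expressing ICAM-1 point mutants were stained by indirect immunofluorescence and analysed by flow cytometry. Specific linear fluorescence intensity of CL203 is expressed relative to wild-type CL203; RR1/1, R6.5 and LB-2 SLFI are expressed relative to CL203 SLFI of the same mutant.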

HRV14 = assay: Binding of [^35S]-Met labeled HRV14 to COS cells expressing ICAM-1 mutants; format: cell-based, human rhinovirus 14; conditions: 35S met-labeled HRV14 binding to COS cells expressing ICAM-1 mutant; normalized for percent of cells expressing mutant and for wild type binding; mean
LFA-1 = target: T1, LFA-1 (Homo sapiens, UniProt P05107+P20701); assay: Adherence of COS cells expressing ICAM-1 or ICAM-1 mutants to plastic-bound purified LFA-1; format: cell-based; conditions: COS cells expressing ICAM-1 mutant adhering to LFA-1 coated plastic; normalized for percent of cells expressing mutant and for wild type binding; mean
T1 construct: endogenous in cells
T1 sequence (P20701 26-1170): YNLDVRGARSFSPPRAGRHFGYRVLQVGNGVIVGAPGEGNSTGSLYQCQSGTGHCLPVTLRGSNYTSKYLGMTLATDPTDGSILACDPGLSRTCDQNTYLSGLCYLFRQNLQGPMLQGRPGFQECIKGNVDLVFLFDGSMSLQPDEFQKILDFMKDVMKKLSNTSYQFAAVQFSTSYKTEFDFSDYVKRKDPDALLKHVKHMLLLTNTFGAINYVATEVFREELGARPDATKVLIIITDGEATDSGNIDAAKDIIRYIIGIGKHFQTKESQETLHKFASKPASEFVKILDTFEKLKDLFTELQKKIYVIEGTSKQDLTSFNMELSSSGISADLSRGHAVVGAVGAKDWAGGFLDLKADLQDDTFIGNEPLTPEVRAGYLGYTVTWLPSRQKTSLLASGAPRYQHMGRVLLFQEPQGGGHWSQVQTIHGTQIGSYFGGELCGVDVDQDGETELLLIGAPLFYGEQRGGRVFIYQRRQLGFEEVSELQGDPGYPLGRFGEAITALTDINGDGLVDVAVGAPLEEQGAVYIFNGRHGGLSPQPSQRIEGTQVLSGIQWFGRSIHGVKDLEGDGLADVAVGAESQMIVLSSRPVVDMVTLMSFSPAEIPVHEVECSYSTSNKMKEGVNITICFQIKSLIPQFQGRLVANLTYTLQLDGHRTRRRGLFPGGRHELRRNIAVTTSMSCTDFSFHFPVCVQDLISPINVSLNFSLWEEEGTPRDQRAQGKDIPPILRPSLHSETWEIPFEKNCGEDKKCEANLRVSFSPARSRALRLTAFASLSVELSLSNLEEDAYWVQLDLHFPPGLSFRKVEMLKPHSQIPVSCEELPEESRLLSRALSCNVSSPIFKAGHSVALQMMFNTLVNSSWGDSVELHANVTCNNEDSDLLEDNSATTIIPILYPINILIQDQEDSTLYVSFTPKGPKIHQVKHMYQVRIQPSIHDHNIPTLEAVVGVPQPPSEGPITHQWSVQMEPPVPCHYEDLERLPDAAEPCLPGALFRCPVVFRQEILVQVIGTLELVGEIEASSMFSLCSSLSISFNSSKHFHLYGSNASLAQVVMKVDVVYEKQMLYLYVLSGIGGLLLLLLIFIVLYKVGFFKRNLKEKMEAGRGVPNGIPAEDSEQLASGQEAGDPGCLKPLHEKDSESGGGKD
T1 sequence (P05107 23-769): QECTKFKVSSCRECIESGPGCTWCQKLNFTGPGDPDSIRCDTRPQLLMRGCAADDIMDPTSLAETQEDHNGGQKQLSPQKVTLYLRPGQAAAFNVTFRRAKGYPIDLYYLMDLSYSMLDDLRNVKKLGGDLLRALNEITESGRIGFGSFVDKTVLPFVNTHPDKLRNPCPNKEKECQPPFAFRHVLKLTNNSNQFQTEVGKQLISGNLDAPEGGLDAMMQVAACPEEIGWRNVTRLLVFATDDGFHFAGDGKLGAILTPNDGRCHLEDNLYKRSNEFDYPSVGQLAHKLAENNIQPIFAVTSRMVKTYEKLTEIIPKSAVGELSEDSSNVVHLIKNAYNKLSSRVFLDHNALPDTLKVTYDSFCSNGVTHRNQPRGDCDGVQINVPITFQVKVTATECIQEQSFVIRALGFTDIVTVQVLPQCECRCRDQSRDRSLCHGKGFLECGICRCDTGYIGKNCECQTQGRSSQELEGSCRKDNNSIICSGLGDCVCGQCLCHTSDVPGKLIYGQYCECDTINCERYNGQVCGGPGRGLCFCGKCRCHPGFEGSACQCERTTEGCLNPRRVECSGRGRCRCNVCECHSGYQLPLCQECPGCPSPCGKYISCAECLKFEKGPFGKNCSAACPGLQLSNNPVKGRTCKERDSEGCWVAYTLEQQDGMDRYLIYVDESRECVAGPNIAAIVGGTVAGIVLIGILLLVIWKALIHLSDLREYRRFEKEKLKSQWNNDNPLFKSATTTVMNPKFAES

CL203 mAb = assay: Indirect immunofluorescence flow cytofluorometry: mAb CL203 binding to COS cells expressing ICAM-1 mutants (SLFI, % WT); format: cell-based; conditions: SLFI of CL203 for mutant normalized to wild type CL203 SLFI; level of expression
Procedure, shortened: as §1

R6.5 mAb = assay: Indirect immunofluorescence flow cytofluorometry: mAb R6.5 binding to COS cells expressing ICAM-1 mutants (SLFI, % CL203); format: cell-based; conditions: SLFI normalized to CL203 SLFI of the mutant
Procedure, shortened: as §1

LB-2 mAb = assay: Indirect immunofluorescence flow cytofluorometry: mAb LB-2 binding to COS cells expressing ICAM-1 mutants (SLFI, % CL203); format: cell-based; conditions: SLFI normalized to CL203 SLFI of the mutant
Procedure, shortened: as §1

Row | Molecule | ^125I Specifically bound (CPM), HUVEC ([1]; rIL-1 beta 100 ng/ml, rIL-1 alpha 50 ng/ml, rTNF alpha 50 ng/ml, LPS 10 μg/ml, rIFN gamma 10 ng/ml, polymyxin B 10 μg/ml, control 603 ± 11) | fold of control ICAM-1 expression, HUVEC ([1]; same concentrations as CPM) | SLFI (% CL203) RR/1 (RR1/1 mAb) | HRV Binding % (HRV14) | LFA-1 Binding % (LFA-1) | Cl203 % WT (SLFI) (CL203 mAb) | SLFI (% CL203) R6.5 (R6.5 mAb) | SLFI (% CL203) LB-2 (LB-2 mAb)
1 | B1 | 9910 ± 538 CPM | 16x |  |  |  |  |  | 
2 | B2 |  |  | 19 % CL203 | 40% | 26% | 75 % WT | 50 % CL203 | 44 % CL203
3 | B3 |  |  | 178 % CL203 | 111% | 91% | 125 % WT | 116 % CL203 | 86 % CL203
4 | B4 |  |  | 113 % CL203 | 82% | 147% | 142 % WT | 125 % CL203 | 132 % CL203
5 | B5 |  |  | 178 % CL203 | 99% | 122% | 180 % WT | 129 % CL203 | 81 % CL203
6 | B6 |  |  | 231 % CL203 | 99% | 90% | 128 % WT | 175 % CL203 | 107 % CL203
7 | B7 |  |  | 94 % CL203 | 106% | 90% | 210 % WT | 92 % CL203 | 100 % CL203

From patent US7354588B1, “Functional derivatives of ICAM-1 with altered ability to bind LFA-1 or HRV” (Dana Farber Cancer Institute, priority 1987, dated 2008)
